Laboratory results reported in the supplement of paper PMC10899765.

tested on: MCF10A; assay: percent viability (nuclei count relative to siNT); higher = more viable cells; settings: 20 nM; 72 h
Method: (§1)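 After 72 h, cells were fixed and stained with Hoechst and anti-fibrillarin, and nucleoli per nucleus were counted with CellProfiler. Values are plate-adjusted percent effect for the one-nucleolus and 5+ nucleoli phenotypes, normalised to siNT (0%) and to the positive controls siNOL11 or siKIF11 (100%), as the mean of biological triplicates. Percent viability is the nuclei count relative to siNT.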

First: UGGAAUGUAAAGAAGUAUGUAU [hsa-miR-1]
Second: CUAGGAGGCCUUGGCC [hsa-miR-4266]
The percent viability of the first is lower: 38.5% for the first, 52.6% for the second.

Compared with “UAGGUAGUUUCAUGUUGUUGGG [hsa-miR-196a-5p]”, CCACUGCCUAUGCCCCACAG [hsa-miR-6890-3p] is higher in percent viability: 33.5% for the first, 62.1% for the second.

Going from “ACUUAAACGUGGAUGUACUUGCU [hsa-miR-302a-5p]” to CCCCGCCACCGCCUUGG [hsa-miR-4258], the percent viability falls from 128% to 54.5%.

First: CUGUGGGCUCAGCGCGUGGGG [hsa-miR-4322]
Second: UGAAGCCAGCUCUGGUCUGGGC [hsa-miR-4786-3p]
The percent viability of the first is higher: 31.3% for the first, 29% for the second.

Going from CCUCAGGGCUGUAGAACAGGGCU [hsa-miR-1266] to “ACCUGCCAGCACCUCCCUGCAG [hsa-miR-4722-3p]”, the percent viability rises from 49.2% to 53.9%.

First: AAAAUGGUUCCCUUUAGAGUGU [hsa-miR-522-3p]
Second: GAAUAUGGGUAUAUUAGUUUGG [hsa-miR-5583-3p]
The percent viability of the first is higher: 66.3% for the first, 65.4% for the second.

Compared with UGCAACUUACCUGAGUCAUUGA [hsa-miR-891b], UGAUAUGUUUGAUAUAUUAGGU [hsa-miR-190a] is higher in percent viability: 41.4% for the first, 116% for the second.

Compared with “AUGUGCCUGAGGGAGUAAGACA [hsa-miR-550b-2-5p]”, GAAUACUAAGUAAAAAAUCAGUA [hsa-miR-8084] is higher in percent viability: 49.7% for the first, 215% for the second.

Going from “GUGAGUGGGAGCCCCAGUGUGUG [hsa-miR-1238-5p]” to “UAUGGGGCUUCUGUAGAGAUUUC [hsa-miR-3675-5p]”, the percent viability falls from 95.1% to 37.2%.

First: UCUGGCUCCGUGUCUUCACUCCC [hsa-miR-149-5p]
Second: UGUAAACAUCCUCGACUGGAAG [hsa-miR-30a-5p]
The percent viability of the first is lower: 32.7% for the first, 47.2% for the second.

Going from “UAUGUAGUAGUCAAAGGCAUUU [hsa-miR-7852-3p]” to UCCUGUCUUUCCUUGUUGGAGC [hsa-miR-5699], the percent viability rises from 81.4% to 186%.

First: UCAGUGUCUGGAUUUCCUAG [hsa-miR-6733-3p]
Second: AGAGGUUAUCCGUGUUAUGUUC [hsa-miR-655-5p]
The percent viability of the first is higher: 70.7% for the first, 32.4% for the second.

First: UUGAAGAGGAGGUGCUCUGUAGC [hsa-miR-4709-3p]
Second: GAGUGGGGCUUCGACCCUAACC [hsa-miR-1296-3p]
The percent viability of the first is lower: 28% for the first, 62.8% for the second.

First: CGAAUCAUUAUUUGCUGCUCUA [hsa-miR-15b-3p]
Second: ACACCCUCUUUCCCUACCGCC [hsa-miR-6865-3p]
The percent viability of the first is higher: 131% for the first, 86.3% for the second.

Going from UGCUUAACCUUGCCCUCGAAA [hsa-miR-4804-3p] to GUGCCAGCUGCAGUGGGGGAG [hsa-miR-1202], the percent viability rises from 49.2% to 76.5%.

Compared with AGUUAAUGAAUCCUGGAAAGU [hsa-miR-569], “CGCAGGGGCCGGGUGCUCACCG [hsa-miR-1909-3p]” is lower in percent viability: 90.6% for the first, 26.7% for the second.

Compared with AAGGGGCUGGGGGAGCACA [hsa-miR-6085], GGGCUCACAUCACCCCAU [hsa-miR-4284] is higher in percent viability: 22% for the first, 40.5% for the second.

Compared with AGCAUGACAGAGGAGAGGUGG [hsa-miR-6076], AGAUGUAUGGAAUCUGUAUAUAUC [hsa-miR-3171] is higher in percent viability: 33.8% for the first, 91.9% for the second.

Going from AACUCUAGCCUGAGCAACAG [hsa-miR-5684] to “AAAGAUAGACAAUUGGCUAAAU [hsa-miR-4662a-3p]”, the percent viability rises from 40.5% to 83.7%.

Going from UUGCUCUGAGCUCCGAGAAAGC [hsa-miR-5691] to UAUGUCCCAUCCCUCCAUCA [hsa-miR-6834-3p], the percent viability falls from 48.2% to 22.7%.

Going from CUUUCAGUCGGAUGUUUACAGC [hsa-miR-30e-3p] to “AAACUAAUCUCUACACUGCUGC [hsa-miR-3129-3p]”, the percent viability falls from 126% to 98.8%.

Going from AGCUGUCUGAAAAUGUCUU [hsa-miR-626] to AUCAAAUAAGGACUAGUCUGCA [hsa-miR-3671], the percent viability rises from 50.2% to 74.3%.

First: UCAGGGAGUCAGGGGAGGGC [hsa-miR-4270]
Second: ACAGAUUCGAUUCUAGGGGAAU [hsa-miR-10b-3p]
The percent viability of the first is lower: 9.71% for the first, 53.5% for the second.

First: CCUGGCAUAUUUGGUAUAACUU [hsa-miR-4720-5p]
Second: UUCAACAAGGGUGUAGGAUGG [hsa-miR-7159-5p]
The percent viability of the first is lower: 31.3% for the first, 105% for the second.

First: CUCCCACAUGCAGGGUUUGCA [hsa-miR-188-3p]
Second: UAAAUCCCAUGGUGCCUUCUCCU [hsa-miR-605]
The percent viability of the first is higher: 57.7% for the first, 31.2% for the second.

Compared with “CAAAAACUGCAAUUACUUUUGC [hsa-miR-548aq-3p]”, CGUGGAGGACGAGGAGGAGGC [hsa-miR-7847-3p] is lower in percent viability: 115% for the first, 67.5% for the second.

Compared with “ACUGGACUUGGAGUCAGAAGGC [hsa-miR-378a-3p]”, “UCACAACAACCUUGCAGGGUAGA [hsa-miR-5003-5p]” is higher in percent viability: 66.7% for the first, 80.1% for the second.

Going from “AGGAGGAUGGAGAGCUGGGCCAGA [hsa-miR-6894-5p]” to “AGCCGCUCUUCUCCCUGCCCACA [hsa-miR-6743-3p]”, the percent viability rises from 28.1% to 58%.

First: AUGUCCCACCCCCACUCCUGU [hsa-miR-4433b-5p]
Second: AGAGAUGCCGCCUUGCUCCUU [hsa-miR-4708-5p]
The percent viability of the first is lower: 28.3% for the first, 45.7% for the second.

Work on UGAGGUAGUAGUUUCUU [hsa-miR-4500] yielded a percent viability of 89.3%.

tested on: MCF10A; assay: 5+ nucleoli phenotype percent effect (relative to siNT 0% and siKIF11 100%); higher = more cells with five or more nucleoli; settings: 20 nM; 72 h
Method: as §1

First: UGGAAUGUAAAGAAGUAUGUAU [hsa-miR-1]
Second: CUAGGAGGCCUUGGCC [hsa-miR-4266]
The “5+ nucleoli phenotype percent effect” value of the first is lower: -15.8% for the first, -14.2% for the second.

Compared with “UAGGUAGUUUCAUGUUGUUGGG [hsa-miR-196a-5p]”, CCACUGCCUAUGCCCCACAG [hsa-miR-6890-3p] is lower in “5+ nucleoli phenotype percent effect” value: 23.8% for the first, -13.4% for the second.

First: ACUUAAACGUGGAUGUACUUGCU [hsa-miR-302a-5p]
Second: CCCCGCCACCGCCUUGG [hsa-miR-4258]
The “5+ nucleoli phenotype percent effect” value of the first is higher: 65.8% for the first, 29.4% for the second.

Compared with CUGUGGGCUCAGCGCGUGGGG [hsa-miR-4322], “UGAAGCCAGCUCUGGUCUGGGC [hsa-miR-4786-3p]” is higher in “5+ nucleoli phenotype percent effect” value: -30.6% for the first, -24% for the second.

Going from CCUCAGGGCUGUAGAACAGGGCU [hsa-miR-1266] to “ACCUGCCAGCACCUCCCUGCAG [hsa-miR-4722-3p]”, the “5+ nucleoli phenotype percent effect” value falls from 16.1% to -32.2%.

First: AAAAUGGUUCCCUUUAGAGUGU [hsa-miR-522-3p]
Second: GAAUAUGGGUAUAUUAGUUUGG [hsa-miR-5583-3p]
The “5+ nucleoli phenotype percent effect” value of the first is lower: 28.6% for the first, 43.7% for the second.

First: UGCAACUUACCUGAGUCAUUGA [hsa-miR-891b]
Second: UGAUAUGUUUGAUAUAUUAGGU [hsa-miR-190a]
The “5+ nucleoli phenotype percent effect” value of the first is lower: -7.44% for the first, 47.6% for the second.

Going from “AUGUGCCUGAGGGAGUAAGACA [hsa-miR-550b-2-5p]” to GAAUACUAAGUAAAAAAUCAGUA [hsa-miR-8084], the “5+ nucleoli phenotype percent effect” value rises from -13.6% to 66.7%.

First: GUGAGUGGGAGCCCCAGUGUGUG [hsa-miR-1238-5p]
Second: UAUGGGGCUUCUGUAGAGAUUUC [hsa-miR-3675-5p]
The “5+ nucleoli phenotype percent effect” value of the first is higher: 22.1% for the first, -9.76% for the second.

First: UCUGGCUCCGUGUCUUCACUCCC [hsa-miR-149-5p]
Second: UGUAAACAUCCUCGACUGGAAG [hsa-miR-30a-5p]
The “5+ nucleoli phenotype percent effect” value of the first is lower: -2.69% for the first, 9.35% for the second.

First: UAUGUAGUAGUCAAAGGCAUUU [hsa-miR-7852-3p]
Second: UCCUGUCUUUCCUUGUUGGAGC [hsa-miR-5699]
The “5+ nucleoli phenotype percent effect” value of the first is lower: -8.45% for the first, 51.3% for the second.

Going from UCAGUGUCUGGAUUUCCUAG [hsa-miR-6733-3p] to AGAGGUUAUCCGUGUUAUGUUC [hsa-miR-655-5p], the “5+ nucleoli phenotype percent effect” value falls from -16.2% to -32.8%.

Compared with “UUGAAGAGGAGGUGCUCUGUAGC [hsa-miR-4709-3p]”, “GAGUGGGGCUUCGACCCUAACC [hsa-miR-1296-3p]” is higher in “5+ nucleoli phenotype percent effect” value: -33% for the first, -0.672% for the second.

Going from CGAAUCAUUAUUUGCUGCUCUA [hsa-miR-15b-3p] to ACACCCUCUUUCCCUACCGCC [hsa-miR-6865-3p], the “5+ nucleoli phenotype percent effect” value rises from 28.9% to 40.5%.

With UGCUUAACCUUGCCCUCGAAA [hsa-miR-4804-3p] the “5+ nucleoli phenotype percent effect” value was -30.7%.
